Measured values as given in the RNAGym collection of RNA variant scans (doi:10.7554/elife.80360).

B1: CPEB3 Ribozyme (parent)
chain: GGGGGCCACAGCAGAAGCGUUCACGUCGCGGCCCCUGUCAGAUUCUGGUGAAUCUGCGAAUUCUGCUGU

Variants of: B1
Assay: self-cleavage, relative activity (ratio to wild type); higher = more cleavage; co-transcriptional

| Variant | self-cleavage |
| --- | --- |
| G48A U49C | 0.959 |
| G48A U49G | 1.01 |
| G47U G58U | 0.994 |
| G47U G58C | 0.963 |
| G47U G58A | 0.946 |
| G48U U62C | 0.929 |
| U49A U69G | 1.06 |
| G47C U53C | 0.992 |
| G47C U53G | 0.911 |
| G47C U53A | 0.967 |
| G47A U55C | 0.966 |
| G47A U55G | 0.91 |
| G48C U49G | 1.06 |
| G48C U49A | 0.976 |
| G48C U49C | 0.993 |
| G47U G50C | 1 |
| G47U G50A | 1.01 |
| U49C A59U | 0.811 |
| U49C A59G | 0.985 |
| U49C A59C | 0.764 |
| G47A U53G | 0.971 |
| G47A U53C | 0.978 |
| G47A U53A | 1.02 |
| U49A G58U | 0.972 |

| Variant | self-cleavage |
| --- | --- |
| U49A G58C | 1.02 |
| G48C C63U | 0.981 |
| G48C C63A | 0.931 |
| G48C U61G | 0.907 |
| G48C U61C | 0.866 |
| G47U G65C | 0.736 |
| U49A C66A | 0.911 |
| U49A C66G | 0.96 |
| G48A C66A | 0.877 |
| G48A C66U | 0.99 |
| G48A C66G | 0.942 |
| G47U U55G | 0.937 |
| G47U U55A | 0.961 |
| G47C A51C | 1.04 |
| U49C U61G | 0.829 |
| G48C A60C | 0.239 |
| G48C A60U | 0.552 |
| G48C G56C | 0.778 |
| G48C G56A | 0.988 |
| G48U C63G | 0.878 |
| G48U C63U | 1.03 |
| G48U C63A | 0.956 |
| G48U G50C | 1.01 |
| G48U G50A | 1.03 |

| Variant | self-cleavage |
| --- | --- |
| G48U G50U | 0.99 |
| G47C G68C | 1.02 |
| G47C G68A | 1 |
| G47C G68U | 0.994 |
| U49A A51U | 1 |
| G47U A60G | 0.912 |
| G47U A60U | 0.552 |
| G47U A60C | 0.386 |
| U49A A60U | 0.582 |
| U49A A60G | 0.915 |
| U49A A60C | 0.394 |
| G47C G48A | 0.988 |
| U49C U64C | 0.907 |
| U49G A51C | 0.939 |
| G48U G56U | 0.994 |
| G48U G56C | 0.865 |
| G48U G56A | 0.945 |
| G48A U69C | 1.06 |
| G48A U69A | 1.02 |
| U49A C63G | 0.878 |
| U49A C63A | 0.943 |
| G48A G50C | 0.974 |
| G48A G50U | 0.988 |
| G48A G50A | 0.985 |

| Variant | self-cleavage |
| --- | --- |
| G48A G58A | 0.961 |
| G48C U53C | 0.96 |
| G48C U53G | 0.913 |
| U49C U55C | 0.795 |
| U49C U55A | 0.936 |
| G48A U55G | 0.993 |
| G48A U55C | 0.949 |
| G48A A59G | 1.05 |
| G48A A59C | 0.83 |
| G48A A59U | 0.817 |
| U49C U53A | 0.962 |
| U49C U53G | 0.859 |
| U49C U53C | 0.948 |
| G47C C66G | 0.91 |
| G47C C66A | 0.897 |
| G48U U55C | 0.977 |
| G48U U55G | 0.968 |
| G47C U69C | 1.06 |
| G47C G56U | 1.02 |
| G47C G56C | 0.92 |
| G47A U62A | 0.976 |
| G47A U62C | 0.933 |
| U49C U67C | 0.986 |
| U49C U67A | 0.946 |

| Variant | self-cleavage |
| --- | --- |
| U49C U67G | 0.969 |
| G47C A60U | 0.562 |
| G48A G65A | 0.992 |
| G48A G65U | 0.914 |
| G48A G65C | 0.81 |
| U49A G65C | 0.476 |
| U49A G65A | 0.934 |
| G48A U61G | 0.919 |
| G48A U61A | 0.957 |
| G48A U61C | 0.852 |
| G47C A52G | 1 |
| G47C A52U | 1.05 |
| G47C A52C | 0.946 |
| G47C U62A | 1 |
| G47C U62G | 0.901 |
| U49A U64C | 0.919 |
| U49A U64G | 0.835 |
| G48C C57G | 0.285 |
| G48C C57A | 0.309 |
| U49A G50A | 0.995 |
| U49A G50C | 1.02 |
| G47A G65U | 0.858 |
| G47C U64A | 0.979 |
| G47C U64G | 0.938 |

| Variant | self-cleavage |
| --- | --- |
| G48C U67G | 1.04 |
| G48C U67A | 1.01 |
| G48C U67C | 0.998 |
| G47C C57U | 0.344 |
| G47C C57A | 0.32 |
| G48C U55A | 1 |
| G48C C54U | 1.04 |
| G47C U61G | 0.937 |
| G47C U61A | 0.97 |
| G48U U53G | 0.94 |
| G48U U53C | 1.04 |
| G47C U67C | 0.993 |
| G47C U67G | 1.06 |
| G48C C66A | 0.91 |
| G48C C66G | 0.934 |
| U49A U67A | 1.05 |
| U49A C54G | 0.947 |
| U49A C54U | 0.995 |
| U49A C54A | 0.641 |
| G48C G65C | 0.775 |
| G48C G65A | 0.926 |
| G48C G65U | 0.869 |
| U49A C57G | 0.346 |
| U49A C57A | 0.273 |

| Variant | self-cleavage |
| --- | --- |
| G48A A51U | 0.989 |
| G48A A51C | 1 |
| G48U G65C | 0.798 |
| G48U G65U | 0.909 |
| G48U U64G | 0.955 |
| G48U U64C | 0.876 |
| G48U U64A | 0.96 |
| G47C C54G | 0.959 |
| G47C C54U | 0.987 |
| U49C G56C | 0.778 |
| G48C A59C | 0.797 |
| G48C A59G | 0.989 |
| U49C G65A | 0.89 |
| U49C G65U | 0.79 |
| U49C G65C | 0.634 |
| G47U G56C | 0.885 |
| G47U G56A | 0.966 |
| G48U C54G | 1.03 |
| G48U U49G | 1.01 |
| G48U U49C | 0.981 |
| G48U U49A | 1.02 |
| G48C A52C | 0.994 |
| G48C A52U | 0.971 |
